These results are taken from US20220089699A1 (AstraZeneca / MedImmune, published 2022).

For this assay, the target named is T1, biotinylated ClfA001 (Staphylococcus aureus).
T1 chain: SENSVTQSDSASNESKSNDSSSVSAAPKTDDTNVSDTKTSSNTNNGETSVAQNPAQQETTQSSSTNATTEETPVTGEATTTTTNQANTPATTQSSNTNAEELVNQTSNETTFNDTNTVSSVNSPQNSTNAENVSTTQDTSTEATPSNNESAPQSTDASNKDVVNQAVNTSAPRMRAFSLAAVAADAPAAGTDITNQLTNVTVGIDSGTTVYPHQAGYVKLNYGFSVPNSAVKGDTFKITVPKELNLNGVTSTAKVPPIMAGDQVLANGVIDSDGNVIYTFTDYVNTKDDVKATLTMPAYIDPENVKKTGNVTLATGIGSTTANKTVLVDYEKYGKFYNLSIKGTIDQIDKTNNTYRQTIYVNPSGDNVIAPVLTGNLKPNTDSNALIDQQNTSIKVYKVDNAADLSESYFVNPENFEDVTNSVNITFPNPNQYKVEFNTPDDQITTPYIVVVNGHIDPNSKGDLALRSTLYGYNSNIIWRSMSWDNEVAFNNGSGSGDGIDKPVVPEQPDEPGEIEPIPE
Nature of the assay: fibrinogen-binding inhibition ELISA: biotinylated ClfA001 (2 µg/ml) on a fibrinogen-coated plate, antibody titrated. On the technique in general: In an ELISA, binding on a coated surface is turned into a signal by an enzyme label.

B1: SAR114 (antibody, V domains shown)
VH: QVQLQESGPGLVKPSETLSLTCTVSGGSIQNSYWSWIRQPPGKGLEWIGYLYSSGRTNYTPSLKSRVTISVDTSKNQFSLKLSSVTAADTAVYYCARTHLGGFHYGGGFWFDPWGQGTLVTVSS
VL: DIQMTQSPSSLSASVGDRVTITCRASQSITSYLNWYQQKPGKAPKLLIYASSSLQSGVPSRFSGSGSGTDFTLTISSLQPEDFATYYCQESYSTPPTFGQGTKVEIK
notes: also called anti-ClfA mAb SAR114
In turn, B1 displayed an IC50 of 3.02 µg/mL.

For orientation: IC50 means the concentration that gives 50% inhibition. Higher therefore signals lower potency.
